The text below walks through data of patent US20090291890A1 (published 2009).

This assay concerns the target Factor X (FX) (Homo sapiens (Human)) (UniProt P00742).

Sequence of Factor X (FX) (Homo sapiens (Human)) (P00742 41-488 limits assumed): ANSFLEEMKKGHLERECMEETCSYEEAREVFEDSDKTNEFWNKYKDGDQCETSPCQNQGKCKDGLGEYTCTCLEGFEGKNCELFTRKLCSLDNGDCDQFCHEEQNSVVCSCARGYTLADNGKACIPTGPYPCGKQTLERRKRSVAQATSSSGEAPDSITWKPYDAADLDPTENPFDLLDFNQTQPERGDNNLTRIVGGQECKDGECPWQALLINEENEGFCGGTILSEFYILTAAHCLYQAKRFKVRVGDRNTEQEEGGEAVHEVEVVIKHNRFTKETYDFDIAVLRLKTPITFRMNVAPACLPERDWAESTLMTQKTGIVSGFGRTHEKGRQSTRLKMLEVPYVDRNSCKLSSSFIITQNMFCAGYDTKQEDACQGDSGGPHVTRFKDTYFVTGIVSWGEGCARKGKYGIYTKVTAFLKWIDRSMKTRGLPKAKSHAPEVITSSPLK

B1: FVIIa variant S222A/H257A (enzyme)
chain: ANAFLEELRPGSLERECKEEQCSFEEAREIFKDAERTKLFWISYSDGDQCASSPCQNGGSCKDQLQSYICFCLPAFEGRNCETHKDDQLICVNENGGCEQYCSDHTGTKRSCRCHEGYSLLADGVSCTPTVEYPCGKIPILEKRNASKPQGRIVGGKVCPKGECPWQVLLLVNGAQLCGGTLINTIWVVSAAHCFDKIKNWRNLIAVLGEHDLSEHDGDEQARRVAQVIIPSTYVPGTTNHDIALLRLHQPVVLTDAVVPLCLPERTFSERTLAFVRFSLVSGWGQLLDRGATALELMVLNVPRLMTQDCLQQSRKVGDSPNITEYMFCAGYSDGSKDSCKGDSGGPHATHYRGTWYLTGIVSWGQGCATVGHFGVYTRVSQYIEWLQKLMRSEPRPGVLLRAPFP
Take B1: the kcat/KM, TF-Dependent Indirect Assay was 5.02e+07 M⁻¹ s⁻¹.

B2: FVIIa variant S222N (enzyme)
chain: ANAFLEELRPGSLERECKEEQCSFEEAREIFKDAERTKLFWISYSDGDQCASSPCQNGGSCKDQLQSYICFCLPAFEGRNCETHKDDQLICVNENGGCEQYCSDHTGTKRSCRCHEGYSLLADGVSCTPTVEYPCGKIPILEKRNASKPQGRIVGGKVCPKGECPWQVLLLVNGAQLCGGTLINTIWVVSAAHCFDKIKNWRNLIAVLGEHDLSEHDGDEQNRRVAQVIIPSTYVPGTTNHDIALLRLHQPVVLTDHVVPLCLPERTFSERTLAFVRFSLVSGWGQLLDRGATALELMVLNVPRLMTQDCLQQSRKVGDSPNITEYMFCAGYSDGSKDSCKGDSGGPHATHYRGTWYLTGIVSWGQGCATVGHFGVYTRVSQYIEWLQKLMRSEPRPGVLLRAPFP
B2: the kcat/KM, TF-Dependent Indirect Assay came out at 6.82e+07 M⁻¹ s⁻¹.

B3: FVIIa variant Q366L (enzyme)
chain: ANAFLEELRPGSLERECKEEQCSFEEAREIFKDAERTKLFWISYSDGDQCASSPCQNGGSCKDQLQSYICFCLPAFEGRNCETHKDDQLICVNENGGCEQYCSDHTGTKRSCRCHEGYSLLADGVSCTPTVEYPCGKIPILEKRNASKPQGRIVGGKVCPKGECPWQVLLLVNGAQLCGGTLINTIWVVSAAHCFDKIKNWRNLIAVLGEHDLSEHDGDEQSRRVAQVIIPSTYVPGTTNHDIALLRLHQPVVLTDHVVPLCLPERTFSERTLAFVRFSLVSGWGQLLDRGATALELMVLNVPRLMTQDCLQQSRKVGDSPNITEYMFCAGYSDGSKDSCKGDSGGPHATHYRGTWYLTGIVSWGLGCATVGHFGVYTRVSQYIEWLQKLMRSEPRPGVLLRAPFP
On to B3, for which the kcat/KM, TF-Dependent Indirect Assay is 6.87e+07 M⁻¹ s⁻¹.

B4: FVIIa variant Q286Y (enzyme)
chain: ANAFLEELRPGSLERECKEEQCSFEEAREIFKDAERTKLFWISYSDGDQCASSPCQNGGSCKDQLQSYICFCLPAFEGRNCETHKDDQLICVNENGGCEQYCSDHTGTKRSCRCHEGYSLLADGVSCTPTVEYPCGKIPILEKRNASKPQGRIVGGKVCPKGECPWQVLLLVNGAQLCGGTLINTIWVVSAAHCFDKIKNWRNLIAVLGEHDLSEHDGDEQSRRVAQVIIPSTYVPGTTNHDIALLRLHQPVVLTDHVVPLCLPERTFSERTLAFVRFSLVSGWGYLLDRGATALELMVLNVPRLMTQDCLQQSRKVGDSPNITEYMFCAGYSDGSKDSCKGDSGGPHATHYRGTWYLTGIVSWGQGCATVGHFGVYTRVSQYIEWLQKLMRSEPRPGVLLRAPFP
B4: the kcat/KM, TF-Dependent Indirect Assay came out at 1.61e+07 M⁻¹ s⁻¹.

B5: FVIIa variant Q286M (enzyme)
chain: ANAFLEELRPGSLERECKEEQCSFEEAREIFKDAERTKLFWISYSDGDQCASSPCQNGGSCKDQLQSYICFCLPAFEGRNCETHKDDQLICVNENGGCEQYCSDHTGTKRSCRCHEGYSLLADGVSCTPTVEYPCGKIPILEKRNASKPQGRIVGGKVCPKGECPWQVLLLVNGAQLCGGTLINTIWVVSAAHCFDKIKNWRNLIAVLGEHDLSEHDGDEQSRRVAQVIIPSTYVPGTTNHDIALLRLHQPVVLTDHVVPLCLPERTFSERTLAFVRFSLVSGWGMLLDRGATALELMVLNVPRLMTQDCLQQSRKVGDSPNITEYMFCAGYSDGSKDSCKGDSGGPHATHYRGTWYLTGIVSWGQGCATVGHFGVYTRVSQYIEWLQKLMRSEPRPGVLLRAPFP
With B5, the kcat/KM, TF-Dependent Indirect Assay worked out at 5.25e+07 M⁻¹ s⁻¹.

B6: FVIIa variant A175S/S222A/Q366V (enzyme)
chain: ANAFLEELRPGSLERECKEEQCSFEEAREIFKDAERTKLFWISYSDGDQCASSPCQNGGSCKDQLQSYICFCLPAFEGRNCETHKDDQLICVNENGGCEQYCSDHTGTKRSCRCHEGYSLLADGVSCTPTVEYPCGKIPILEKRNASKPQGRIVGGKVCPKGECPWQVLLLVNGSQLCGGTLINTIWVVSAAHCFDKIKNWRNLIAVLGEHDLSEHDGDEQARRVAQVIIPSTYVPGTTNHDIALLRLHQPVVLTDHVVPLCLPERTFSERTLAFVRFSLVSGWGQLLDRGATALELMVLNVPRLMTQDCLQQSRKVGDSPNITEYMFCAGYSDGSKDSCKGDSGGPHATHYRGTWYLTGIVSWGVGCATVGHFGVYTRVSQYIEWLQKLMRSEPRPGVLLRAPFP
Turning to B6, the kcat/KM, TF-Dependent Indirect Assay turned out to be 3.78e+07 M⁻¹ s⁻¹.

B7: FVIIa variant S222D (enzyme)
chain: ANAFLEELRPGSLERECKEEQCSFEEAREIFKDAERTKLFWISYSDGDQCASSPCQNGGSCKDQLQSYICFCLPAFEGRNCETHKDDQLICVNENGGCEQYCSDHTGTKRSCRCHEGYSLLADGVSCTPTVEYPCGKIPILEKRNASKPQGRIVGGKVCPKGECPWQVLLLVNGAQLCGGTLINTIWVVSAAHCFDKIKNWRNLIAVLGEHDLSEHDGDEQDRRVAQVIIPSTYVPGTTNHDIALLRLHQPVVLTDHVVPLCLPERTFSERTLAFVRFSLVSGWGQLLDRGATALELMVLNVPRLMTQDCLQQSRKVGDSPNITEYMFCAGYSDGSKDSCKGDSGGPHATHYRGTWYLTGIVSWGQGCATVGHFGVYTRVSQYIEWLQKLMRSEPRPGVLLRAPFP
B7: the kcat/KM, TF-Dependent Indirect Assay was determined as 5.34e+07 M⁻¹ s⁻¹.

B8: FVIIa variant Q366I (enzyme)
chain: ANAFLEELRPGSLERECKEEQCSFEEAREIFKDAERTKLFWISYSDGDQCASSPCQNGGSCKDQLQSYICFCLPAFEGRNCETHKDDQLICVNENGGCEQYCSDHTGTKRSCRCHEGYSLLADGVSCTPTVEYPCGKIPILEKRNASKPQGRIVGGKVCPKGECPWQVLLLVNGAQLCGGTLINTIWVVSAAHCFDKIKNWRNLIAVLGEHDLSEHDGDEQSRRVAQVIIPSTYVPGTTNHDIALLRLHQPVVLTDHVVPLCLPERTFSERTLAFVRFSLVSGWGQLLDRGATALELMVLNVPRLMTQDCLQQSRKVGDSPNITEYMFCAGYSDGSKDSCKGDSGGPHATHYRGTWYLTGIVSWGIGCATVGHFGVYTRVSQYIEWLQKLMRSEPRPGVLLRAPFP
On to B8, for which the kcat/KM, TF-Dependent Indirect Assay was 9.37e+07 M⁻¹ s⁻¹.

B9: FVIIa variant S222A/Q286R/Q366V (enzyme)
chain: ANAFLEELRPGSLERECKEEQCSFEEAREIFKDAERTKLFWISYSDGDQCASSPCQNGGSCKDQLQSYICFCLPAFEGRNCETHKDDQLICVNENGGCEQYCSDHTGTKRSCRCHEGYSLLADGVSCTPTVEYPCGKIPILEKRNASKPQGRIVGGKVCPKGECPWQVLLLVNGAQLCGGTLINTIWVVSAAHCFDKIKNWRNLIAVLGEHDLSEHDGDEQARRVAQVIIPSTYVPGTTNHDIALLRLHQPVVLTDHVVPLCLPERTFSERTLAFVRFSLVSGWGRLLDRGATALELMVLNVPRLMTQDCLQQSRKVGDSPNITEYMFCAGYSDGSKDSCKGDSGGPHATHYRGTWYLTGIVSWGVGCATVGHFGVYTRVSQYIEWLQKLMRSEPRPGVLLRAPFP
As to B9, the kcat/KM, TF-Dependent Indirect Assay was determined as 1.27e+08 M⁻¹ s⁻¹.

B10: FVIIa variant Q366M (enzyme)
chain: ANAFLEELRPGSLERECKEEQCSFEEAREIFKDAERTKLFWISYSDGDQCASSPCQNGGSCKDQLQSYICFCLPAFEGRNCETHKDDQLICVNENGGCEQYCSDHTGTKRSCRCHEGYSLLADGVSCTPTVEYPCGKIPILEKRNASKPQGRIVGGKVCPKGECPWQVLLLVNGAQLCGGTLINTIWVVSAAHCFDKIKNWRNLIAVLGEHDLSEHDGDEQSRRVAQVIIPSTYVPGTTNHDIALLRLHQPVVLTDHVVPLCLPERTFSERTLAFVRFSLVSGWGQLLDRGATALELMVLNVPRLMTQDCLQQSRKVGDSPNITEYMFCAGYSDGSKDSCKGDSGGPHATHYRGTWYLTGIVSWGMGCATVGHFGVYTRVSQYIEWLQKLMRSEPRPGVLLRAPFP
Consider B10, for which the kcat/KM, TF-Dependent Indirect Assay came to 6.61e+07 M⁻¹ s⁻¹.

B11: FVIIa variant S222V (enzyme)
chain: ANAFLEELRPGSLERECKEEQCSFEEAREIFKDAERTKLFWISYSDGDQCASSPCQNGGSCKDQLQSYICFCLPAFEGRNCETHKDDQLICVNENGGCEQYCSDHTGTKRSCRCHEGYSLLADGVSCTPTVEYPCGKIPILEKRNASKPQGRIVGGKVCPKGECPWQVLLLVNGAQLCGGTLINTIWVVSAAHCFDKIKNWRNLIAVLGEHDLSEHDGDEQVRRVAQVIIPSTYVPGTTNHDIALLRLHQPVVLTDHVVPLCLPERTFSERTLAFVRFSLVSGWGQLLDRGATALELMVLNVPRLMTQDCLQQSRKVGDSPNITEYMFCAGYSDGSKDSCKGDSGGPHATHYRGTWYLTGIVSWGQGCATVGHFGVYTRVSQYIEWLQKLMRSEPRPGVLLRAPFP
For B11, the kcat/KM, TF-Dependent Indirect Assay amounted to 6.04e+07 M⁻¹ s⁻¹.

B12: FVIIa variant A175S/Q286R/Q366V (enzyme)
chain: ANAFLEELRPGSLERECKEEQCSFEEAREIFKDAERTKLFWISYSDGDQCASSPCQNGGSCKDQLQSYICFCLPAFEGRNCETHKDDQLICVNENGGCEQYCSDHTGTKRSCRCHEGYSLLADGVSCTPTVEYPCGKIPILEKRNASKPQGRIVGGKVCPKGECPWQVLLLVNGSQLCGGTLINTIWVVSAAHCFDKIKNWRNLIAVLGEHDLSEHDGDEQSRRVAQVIIPSTYVPGTTNHDIALLRLHQPVVLTDHVVPLCLPERTFSERTLAFVRFSLVSGWGRLLDRGATALELMVLNVPRLMTQDCLQQSRKVGDSPNITEYMFCAGYSDGSKDSCKGDSGGPHATHYRGTWYLTGIVSWGVGCATVGHFGVYTRVSQYIEWLQKLMRSEPRPGVLLRAPFP
In the case of B12, the kcat/KM, TF-Dependent Indirect Assay was 8.08e+07 M⁻¹ s⁻¹.

B13: FVIIa variant Q286L (enzyme)
chain: ANAFLEELRPGSLERECKEEQCSFEEAREIFKDAERTKLFWISYSDGDQCASSPCQNGGSCKDQLQSYICFCLPAFEGRNCETHKDDQLICVNENGGCEQYCSDHTGTKRSCRCHEGYSLLADGVSCTPTVEYPCGKIPILEKRNASKPQGRIVGGKVCPKGECPWQVLLLVNGAQLCGGTLINTIWVVSAAHCFDKIKNWRNLIAVLGEHDLSEHDGDEQSRRVAQVIIPSTYVPGTTNHDIALLRLHQPVVLTDHVVPLCLPERTFSERTLAFVRFSLVSGWGLLLDRGATALELMVLNVPRLMTQDCLQQSRKVGDSPNITEYMFCAGYSDGSKDSCKGDSGGPHATHYRGTWYLTGIVSWGQGCATVGHFGVYTRVSQYIEWLQKLMRSEPRPGVLLRAPFP
Consider B13, for which the kcat/KM, TF-Dependent Indirect Assay amounted to 2.02e+07 M⁻¹ s⁻¹.
